Reference: paper PMC5119734

Tests used:
[1] = target: Group B Streptococcus glyceraldehyde 3-phosphate dehydrogenase, wild type (Streptococcus agalactiae (Group B Streptococcus)); assay: SEC; Superdex 200 in 25 mM Hepes, 100 mM NaCl, 5 mM beta-mercaptoethanol, pH 7.35
[2] = target: Group B Streptococcus glyceraldehyde 3-phosphate dehydrogenase, wild type (Streptococcus agalactiae (Group B Streptococcus)); assay: crystal structure; hanging drop vapor diffusion at 295 K, 20-28% PEG4000, 0.1 M MES pH 6.5; apo, mixed-holo, holo (2 mM NAD) and ternary (2 mM NAD, 11 mM DL-G3H) crystals; four subunits in the asymmetric unit

stoichiometry N [1]: 4 | stoichiometry N [2]: 4
Substance: Group B Streptococcus glyceraldehyde 3-phosphate dehydrogenase, wild type (enzyme)
